Assay: soluble on expression in E. coli; label from the status in PepcDB or PDB records

Sequence	soluble on expression in E. coli
MGLFDRLRAGLAKTRERLLKAIPWGGDPEEVLEELEMALLAADVGVAATEELLKEVRASGRRDLKEVVKEKLVQMLEPDERRATLRKLGFRPQKLRPVEPQGHVVMVVGVNGVGKTTTIAKLGRLYQGLGKKVLFCAGDTFRAAGGAQLAEWGKRLGIPVIQGPEGADPAALAFDAAKARRARGLDLLFVDTAGRLHTKQGLMEELKKVKRAIAKADPGEPGEVWLVLDAVTGQNGLEQAKRFHEAVGLTGVIVTKLDGTAKGGVLVPIVRTLKVPIRFIGVGEGPDDLQPFDAEAFVEALLEA	soluble
YRRFEKEKLKSQWNNDNPLFKSATTTVMNPKFAES	soluble
MGSDKIHHHHHHMSAPLLSVRDLSVAFHQGESQSLAVDHVSFDIAPGEILALVGESGSGKSVSAASILKLLPYPAASHPSGQILFDGRDLLTLSEPALRAVRGNDITMIFQEPMTSLNPLHSIEQQIGEILELHQSLTGDAARKRTLELLLQVGIREPEKRLSAFPHELSGGQRQRVMIAMALANRPKLLVADEPTTALDVTVQAQILELLAGLKREHGMSMLFITHDLGIVRKFADRVCVMTGGKIVESGPVEAIFANPQHAYTRKLLASEPRGVPPETDLAKPVVMEGQEIRVWFPIKAGFLRRVVDNVKAVDGVDLTLRAGQTLGVVGESGSGKTTLGLALARLISSRGRIGFLGKNIDGYSFKQMRPLRDRLQVVFQDPFGALSPRMSVGDIIAEGLRVHERGLTAAERDRRVCWALEEVGLDIATRWRYPHEFSGGQRQRIAIARAMVLKPRFVMLDEPTSALDMTVQAQVVDLLRDLQSRHDLAYLFISHDLKVVKALANDIIVMRSGKVVEQGPAQEVFTAPKQDYTKALLAAAFDLKAMNIGGVSQ	not soluble
MSFDKKVTIAHLSDLHFASKNDRYLTARLDTMLGEFVRRKYDHLVMTGDLIDTASPALWTIIRDALVRHGLFDWTKTTVIPGNHDLIDLEEEMRFYNALNPDDRSRQHRVDDRLRQFNAIFRPLITDNGDALAGVPFVKVMRLGGISLSFVAVNTVDPWSGLDNPAGARGSVSPETLRALQEPGVRQVLDDTFIIGLCHHAYKVYGTGALVDQVFDWTMEFKNRDEYLKAMKNLGVRLVLHGHFHRFQVYQANGINFINGGSFRYSPERYGELVINADGRWSHRFVNLALKKLEHHHHHH	not soluble
MKVIETNFTDAKLLEPRLFGDDRGFFTESYNKKVLETLGVTHSFVQDNVSYSAEAGTIRGLHFQKNPKAQTKLIQVMQGAIYDVIVDLRKDSPTFKQWRGYILSADNHRQLLVPKGFAHGFCTLVPHTIVMYKVDEYYSADHDSGVLWNDKELAIPWPVTSPILSDKDRILPLLQECEDSF	not soluble
MGSDKIHHHHHHMTSSPTSTQESSTSWYLLLQQLIDGESLSRSQAAELMQGWLSEAVPPELSGAILTALNFKGVSADELTGMAEVLQSQSKMGTGENYSQLPITNSPFSIIDTCGTGGDGSSTFNISTAVAFVAAAYGVPVAKHGNRSASSLTGSADVLEALGVNLGASPEKVQAALQEVGITFLFAPGWHPALKAVATLRRTLRIRTVFNLLGPLVNPLRPTGQVVGLFTPKLLTTVAQALDNLGKQKAIVLHGRERLDEAGLGDLTDLAVLSDGELQLTTINPQEVGVTPAPIGALRGGDVQENAEILKAVLQGKGTQAQQDAVALNAALALQVAGAVPLLDHAQGVSVAKEILQTGTAWAKLAQLVYFLGN	soluble
GSHMKDYSLEIDAVMKAAQINDTNNFVQALMRWHFSKETGSPFWLGMREQLNFDPIKDVKTINDLRQFSDISHCLRQEPVANLVPQGLPADSHPQVYESGGTTGAPKYVVAYDAWIEALISWRMSGYQHRPGRPSGNTLAAIPTGPHIVGAINKERALRLGGMFFSIDIDPRWVKRSLSEGDTATVRKYTHHLVDQVQNTLMNQDIRFLVTTPPVLRELLKRPEVVLQMKQSLAQITLGGTELNLDEIKFIASEILPDCEFSASYGSTSALGVSRSLLITSESQQVIYDSFSPFITYDVVDSITAQTVEYGERGNVIVTHLSPWAFYPRVAERDTAIRLPGVSGFAGDRLADIEPLKISEGRKVIEGVY	soluble
SPTPVELHKVTLYKDSGMEDFGFSVADGLLEKGVYVKNIRPAGPGDLGGLKPYDRLLQVNHVRTRDFDCCLVVPLIAESGNKLDLVISRNP	soluble
MYKYISNELPQFFENGMLRFTQPGQFNDPFELLPRYVDFMGENTKQYILDNIEVLVKEIPQNEPWYIKLIPMSIKVFAIRLLLTSNHKRVKKVTDEIDAFGLSVANGQYRDIIDQSYGILCLSAKEDSLLMWSHYGNSHKGYVIEFDTSHKFFNQVIPNKKTGGVLDYAGTPLKVTYTKRRKTILFWQKAMSEVFLTKGSDWEYEQEYRMVLPLETSTEVVNGNIHLFHIPFDAVKSIIFGAKCEDEFIQNSIAKIHHWDSKHIDFQLFQFNLSDNDFELVRKKI	soluble
MVSYKARISLSGTEHRVVDRVCNEIKEIASRTGVEIHGPMPLPTKRLVVPVRKSPDGEGTNTWDHWEMRIHKRLIDVDADERTLRQLMRIPIPDGVQIEIQIKS	soluble
SASLDRVKVLVLGDSGVGKSSLVHLLCQNQVLGNPSWTVGCSVDVRVHDYKEGTPEEKTCYIELWDVGGSVGSASSVKSTRAVFYNSVNGIIFVHDLTNKKSSQNLRRWSLEALNRDLVPTGVLVTNGDYDQEQFADNQIPLLVIGTKLDQIHETKRHEVLTTTAFLAEDFNPEEINLDCTNPRYLAAGSSNAVKLSRFFDKVIEKRYFLREGNQIPGFPDRKRFGAGTLKSLHYD	soluble
MYADRDLPGAGGLAVRVIPCLDVDDGRVVKGVNFENLRDAGDPVELAAVYDAEGADELTFLDVTASSSGRATMLEVVRRTAEQVFIPLTVGGGVRTVADVDSLLRAGADKVAVNTAAIACPDLLADMARQFGSQCIVLSVDARTVPVGSAPTPSGWEVTTHGGRRGTGMDAVQWAARGADLGVGEILLNSMDADGTKAGFDLALLRAVRAAVTVPVIASGGAGAVEHFAPAVAAGADAVLAASVFHFRELTIGQVKAALAAEGITVR	not soluble
CSEPYEGKVAVASVILNRLQNPEFPKSIGDVIKQKYAFSCIRDGKIEVTPNQECYNAVMDALHGKDPTPKAMYFYNPRISTSSWMNNIQKENVKVIGNHVFFKTYKE	not soluble
MGSDKIHHHHHHMFLQPLLAKKIIAEVKKMYEREVIIVNTDGLIMAGTNDERVGQFHEGALICAKERRSVIITKEDETRLKGVKAGINLPVFFDHDVISVFGLTGEPAEIQPFGELLRKMTELFIKESRHLEQSQWRERMLESFMIDWLQLKEWSPSFLEKAQLLGVDLSSRRQMILIQGYEWSPHDIEQMARSWKSSYPADLFIRWGNERILINHEVPQHEQRDRLLRKILHICSFANTASSQYTAAGAGRAVASSSLTDSYEQAEKALAVSLKRKTPIFEEDLKLDMCLTEISPGTRNEFPQRVLGKALEHQELMNTIRTFFHHDLSLKQTAEDMHIHINTLRYRLAKAEQLTGLRFDRTEDVVTMYVALYFLDQDTK	not soluble
SSSISELYDVTWEEMRDKLRKWREENYRNSEQIVDVGEELINEHASKLGDDIWIIYEQVMIAALDCSRDDLAWSCLQELKRQFPDSHRVKRLAGMRLEALERYDDANKLYDSILQDDPTNTAARKRKICILRAQGKSSEAIRELNEYLEQFVGDQEAWHELSELYINEHDYAKAAFCLEELMMTNPHNHLYCEQYAEVKYTQGGLENLELARKYFAQALKLNNRNMRALFGLYMSASHIAASPKVSAKVKKDNVKYAAWAAAQISRAYQMAGRGKKENKCSVKAVEEMLESLQITMS	soluble
MTASIFSGVIPALMTPCRQDRTPDFDALVRKGKELIADGMSAVVYCGSMGDWPLLTDEQRMEGVERLVKAGIPVIVGTGAVNTASAVAHAVHAQKVGAKGLMVIPRVLSRGSVIAAQKAHFKAILSAAPEIPAVIYNSPYYGFATRADLFFALRAEHKNLVGFKEFGGPADMRYAAENITSRDDEVTLMIGVDTAVVHGFVNCGATGAITGIGNVLPKEVIHLCKLSQAAAKGDADARARALELEQALAVLSSFDEGPDLVLYFKYMMVLKGDKEYTLHFNETDALTDSQRGYVEAQFKLFNSWYADWSKLPGAVQTCKAA	soluble
MSFNKEDQQDEALAFLLAVATVESGDAGAFRQRVTQYMTKAYGEDTSKMTMQEQGRAEAVSRLYARADNIYHRIKVNALPRLSRGF	not soluble
MCGDCVEKEYPNRGNTCLENGSFLLNFTGCAVCSKRDFMLITNKSLKEEDGEEIVTYDPDLCKNCHHVIARHEYTFSIMDEFQEYTMLCLLCAKPKILSVFSLMTPDKLEHHHHHH	soluble
MGSDKIHHHHHHMQKSRPEQDVHEDIKILIQTHFGESGQGIHIEVKGDKVSLWGTVDSLAEKDFIGQRIGRIDGVKELDNSLTVANDGKITDKDIEKQVVERFAQSNFEEIMHLGCRASKGIVTLLGHLETQSSERLAKRIASQVRGVKEVRSEIDFLEKAVDDATLVNRVENALVASPWVNAHEIKTSARNGLITLTGMVNTQEEMEWAVDTAYQVPGVKAVVSEIFSRHRSQGEDLYMTEQLVRKLGQHGMTSQLVRAFVQDGIAYMTGEVYSDEDRRWAESMGQHVEGIKSINSSIKVAAHSSK	not soluble
MTGMRKTLKATLAEARAQVEAALKEEGFGILTEIDVAATLKAKLGLEKPPYLILGACNPNLAARALEALPEIGLLLPCNVVLREAEEGVEVLIQDPKEMFRVLPEATQRALAPVAEEARTRLSRALSRL	soluble
MPIHHAIVHLIEKKPDGTPAVLHARDAELGDSQAIENLLADLNESYNAKNKAWGFFQGESGAYPFSGWLGEYLEGDRDFVGFSREAVEHLQKLMEESNLSTGGHILFAHYQQGMTDYLAIALLHHSEGVAVNESLEVTPSRHLDLGQLHLAARINISEWRNNKQSKQYISFIKGKGGKKVSDYFRDFIGCQEGVDSPSETRTLLKAFSDFVESEDMAEEQAREKTETLVDYATSQARIGEPMTLDALSELMDDQQPRAFYDYIRNKDYGLSPEIPADKRTLNQFRRFTGRAEGLSISFEAHLLGSKVEYDEERDMLIIRQLPTQLKDQLKRRKDLEHHHHHH	not soluble
MGSDKIHHHHHHVSLSFDFSPDFNPLAARMRPASVEEYIGQSHLLGEGKPLRQALLAGKVHSMLLWGPPGTGKTTLAELVARYANAHVERISAVTSGVKEIRAAIEQAKNVAQSRGQRTLLFVDEVHRFNKSQQDAFLPFIEDGTVIFIGATTENPSFEVNNALLSRCRVYLIKRLEDDAIGQILAQANSDEARGLGKRGLLLKAELKSAIARLCDGDARKALNLLELMSDLLPDGGEYNLELLSEVAGHQAAGYDKNGDQYYDLISAVHKSIRGSAPDAALYWFCRILEGGGDPLYVARRLLAIASEDIGNADPNAMTVALNAWDCFHRVGPAEGERAIAQAVIYLASAPKSNAVYTAFKAARVLARETGNAPVPNHLRNAPTKLMSELGVGEGYRYAHDEDGAFAAGENYFPEVLQHSRIYQPTARGFEKRIRDKLAHLDALNQQSGRKRYE	not soluble
MCARIQQLPVFFIFILYGSCATTKRNIYVLAINKLMEQQIRKYESFNDLPADCKKLFDSGEKDSFDLSRDWFLLLETTVIRQTKEICIFTLEIEGVTQGIWPTLLQKKGKLSLRQISSFTCFYSSLYQPLISSSLTVDKLADCLRWILSDTRTDVLRFDIMDPSQSSFNLHEQALKKIGFKTDRFFCWGNWYLPVNNQPFSVYLQNLSSRVRNTLERRKKKFLAGGHGKLEILTTHDKLPIAIQAWEKIYNASWKIPEPYPEFMPSLISLCAAKGWLRLGIAYYDEEPIAAQLWIVNQGRAAIYKLAYDEKFAHLSPGTILTAHLMQHAIDVDKVHEVDYLTGDDAYKKDWMSHRRERLGLVAYNLRSFWGLIGISKHIAGKIRKKILKSLK	not soluble

— the DeepSol protein solubility set
